Laboratory results published in PMC7383231, “Pseudo-RNA-Binding Domains Mediate RNA Structure Specificity in Upstream of N-Ras”.

Key:
dUnr CSD789 [1] = target: T1, dUnr CSD789 (Drosophila melanogaster, UniProt B7Z0E2 756-990); test: EMSA; EMSA: 20 mM HEPES/NaOH pH 7.5, 50 mM NaCl, 10% glycerol, 2 mM DTT, 1 h at 4 C, ~25 nM RNA; NMR: 20 mM NaP pH 6.5, 50 mM NaCl, 1 mM DTT (10 mM for CSD12), 10% D2O, 298 K; conditions: protein: recombinant; tags: tag cleaved with TEV; label: 3' pCp-Cy5; stem loops
T1 sequence: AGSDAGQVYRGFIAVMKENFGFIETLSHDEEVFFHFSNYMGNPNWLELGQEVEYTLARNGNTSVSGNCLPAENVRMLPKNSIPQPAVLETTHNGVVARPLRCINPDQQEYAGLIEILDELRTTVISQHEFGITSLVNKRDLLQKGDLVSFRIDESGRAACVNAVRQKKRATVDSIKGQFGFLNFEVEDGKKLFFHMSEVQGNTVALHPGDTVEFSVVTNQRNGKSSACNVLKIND

dUnr CSD123 = target: T2, dUnr CSD123 (Drosophila melanogaster, UniProt B7Z0E2 186-414); test: as above; conditions: protein: recombinant; tags: tag cleaved with TEV; label: 3' pCp-Cy5; stem loops
T2 sequence: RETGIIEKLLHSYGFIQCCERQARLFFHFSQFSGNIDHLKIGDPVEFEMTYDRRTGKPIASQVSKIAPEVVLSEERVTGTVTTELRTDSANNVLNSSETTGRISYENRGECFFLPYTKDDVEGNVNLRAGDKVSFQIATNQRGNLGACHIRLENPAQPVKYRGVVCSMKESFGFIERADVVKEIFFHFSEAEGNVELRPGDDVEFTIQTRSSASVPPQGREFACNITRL

dUnr CSD456 = target: T3, dUnr CSD456 (Drosophila melanogaster, UniProt B7Z0E2 424-677); test: as above; conditions: protein: recombinant; tags: tag cleaved with TEV; label: 3' pCp-Cy5; stem loops
T3 sequence: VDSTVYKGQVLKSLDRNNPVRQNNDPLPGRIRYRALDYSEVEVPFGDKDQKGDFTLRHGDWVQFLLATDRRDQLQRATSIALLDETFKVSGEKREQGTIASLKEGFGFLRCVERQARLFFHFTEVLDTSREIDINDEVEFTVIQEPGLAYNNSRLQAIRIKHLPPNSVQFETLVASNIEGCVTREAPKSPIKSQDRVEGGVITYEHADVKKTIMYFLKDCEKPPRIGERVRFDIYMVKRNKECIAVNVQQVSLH

Unr full-length (dUnr) = target: T4, Unr full-length (dUnr) (Drosophila melanogaster, UniProt B7Z0E2 1-1039); test: as above; conditions: protein: recombinant; tags: His6; label: 3' pCp-Cy5; stem loops
T4 sequence: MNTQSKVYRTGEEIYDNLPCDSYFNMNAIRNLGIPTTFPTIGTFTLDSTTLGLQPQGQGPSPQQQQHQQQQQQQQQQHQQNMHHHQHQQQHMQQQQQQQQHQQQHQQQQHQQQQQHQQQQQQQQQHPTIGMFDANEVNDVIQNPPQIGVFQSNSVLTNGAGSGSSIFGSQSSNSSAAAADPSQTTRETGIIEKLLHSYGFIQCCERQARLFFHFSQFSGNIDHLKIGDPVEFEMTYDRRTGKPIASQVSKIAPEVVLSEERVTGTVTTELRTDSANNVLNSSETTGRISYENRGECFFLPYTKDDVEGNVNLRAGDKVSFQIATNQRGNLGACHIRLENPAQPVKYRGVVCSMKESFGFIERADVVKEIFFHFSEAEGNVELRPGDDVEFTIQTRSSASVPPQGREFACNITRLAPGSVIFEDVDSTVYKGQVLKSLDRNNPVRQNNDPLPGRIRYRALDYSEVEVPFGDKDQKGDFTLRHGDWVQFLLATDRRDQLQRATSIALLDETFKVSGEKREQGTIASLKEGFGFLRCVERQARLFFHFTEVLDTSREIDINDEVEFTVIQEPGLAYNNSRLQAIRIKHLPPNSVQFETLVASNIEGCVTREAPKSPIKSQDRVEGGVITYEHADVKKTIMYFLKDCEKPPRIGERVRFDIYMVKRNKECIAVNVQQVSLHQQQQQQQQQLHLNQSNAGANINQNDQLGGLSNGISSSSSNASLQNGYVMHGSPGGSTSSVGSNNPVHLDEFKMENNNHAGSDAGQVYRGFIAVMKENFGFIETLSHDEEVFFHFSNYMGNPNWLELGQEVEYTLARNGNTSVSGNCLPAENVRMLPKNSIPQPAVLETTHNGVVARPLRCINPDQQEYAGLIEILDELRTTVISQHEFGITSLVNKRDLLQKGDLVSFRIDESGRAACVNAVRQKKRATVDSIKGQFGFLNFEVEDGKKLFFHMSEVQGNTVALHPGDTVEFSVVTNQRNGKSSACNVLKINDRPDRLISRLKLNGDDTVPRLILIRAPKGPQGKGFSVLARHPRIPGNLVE

dUnr CSD9 = target: T5, dUnr CSD9 (Drosophila melanogaster, UniProt B7Z0E2 898-990); test: NMR titration; joint range given for CSD78 and CSD9; EMSA: 20 mM HEPES/NaOH pH 7.5, 50 mM NaCl, 10% glycerol, 2 mM DTT, 1 h at 4 C, ~25 nM RNA; NMR: 20 mM NaP pH 6.5, 50 mM NaCl, 1 mM DTT (10 mM for CSD12), 10% D2O, 298 K; conditions: protein: recombinant; tags: tag cleaved with TEV
T5 sequence: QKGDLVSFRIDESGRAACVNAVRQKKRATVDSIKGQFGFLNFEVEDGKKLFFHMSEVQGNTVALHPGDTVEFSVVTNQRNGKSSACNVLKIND

dUnr CSD78 = target: T6, dUnr CSD78 (Drosophila melanogaster, UniProt B7Z0E2 756-922); test: as above; conditions: protein: recombinant; tags: tag cleaved with TEV
T6 sequence: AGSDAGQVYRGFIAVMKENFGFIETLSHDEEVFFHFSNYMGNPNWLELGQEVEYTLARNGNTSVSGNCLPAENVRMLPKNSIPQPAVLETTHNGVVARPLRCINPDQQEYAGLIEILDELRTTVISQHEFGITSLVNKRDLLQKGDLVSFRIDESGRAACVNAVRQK

dUnr ncCSD6 = target: T7, dUnr ncCSD6 (Drosophila melanogaster, UniProt B7Z0E2 593-677); test: NMR titration; no CSPs; EMSA: 20 mM HEPES/NaOH pH 7.5, 50 mM NaCl, 10% glycerol, 2 mM DTT, 1 h at 4 C, ~25 nM RNA; NMR: 20 mM NaP pH 6.5, 50 mM NaCl, 1 mM DTT (10 mM for CSD12), 10% D2O, 298 K; conditions: protein: recombinant; tags: tag cleaved with TEV
T7 sequence: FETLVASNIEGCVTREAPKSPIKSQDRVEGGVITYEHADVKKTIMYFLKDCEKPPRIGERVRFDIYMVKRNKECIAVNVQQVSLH

dUnr ncCSD8 = target: T8, dUnr ncCSD8 (Drosophila melanogaster, UniProt B7Z0E2 841-922); test: as above; conditions: protein: recombinant; tags: tag cleaved with TEV
T8 sequence: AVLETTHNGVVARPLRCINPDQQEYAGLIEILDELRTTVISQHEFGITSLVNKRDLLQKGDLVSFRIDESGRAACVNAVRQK

dUnr CSD789 [2] = target: T1, dUnr CSD789; test: NMR titration; deuterated protein; CSPs in all three domains, intermediate-to-slow exchange; EMSA: 20 mM HEPES/NaOH pH 7.5, 50 mM NaCl, 10% glycerol, 2 mM DTT, 1 h at 4 C, ~25 nM RNA; NMR: 20 mM NaP pH 6.5, 50 mM NaCl, 1 mM DTT (10 mM for CSD12), 10% D2O, 298 K; conditions: protein: recombinant; tags: tag cleaved with TEV

B1: SL67 (roX2 lncRNA stem loops 6 and 7) (structured_RNA)
RNA: ACAAUAUGCAAUACAAUACAAUACAAGACAAAAAAAUGUGUCUUGGAACCAACAUUGUACAAGUCGCAAUGCAAACUGAAGUCUUAAAAGACGUGUAAAAUGUUGCAAAUUAAGCAAAUAUAUAUGCAUAUAUGGGUAACGUUUUACGCGCCUUAACCAGU
Work on B1 yielded a Kd (dUnr CSD789 [1]) of 32 µM, a Kd (dUnr CSD123) of 1.41 µM and a Kd (dUnr CSD456) of 16 µM. For the same binder, the Kd (Unr full-length (dUnr)) was 0.707 µM.

With AAAAAAAUG (ssRNA) [9-mer RNA from roX2 SL6 loop] the Kd (dUnr CSD9) was roughly 245 µM, the Kd (dUnr CSD78) was roughly 245 µM and the binding result (dUnr ncCSD6) was “no binding”. AAAAAAAUG (ssRNA) [9-mer RNA from roX2 SL6 loop]: no binding (dUnr ncCSD8).

AAAAAAAAAAAAAAA (ssRNA) [A15-mer RNA]: binds (dUnr CSD789 [2]).
